Assay results as given in US20220073608A1 (JIANGSU HUAIYU PHARMACEUTICAL, published 2022).
Residue numbers refer to the chain shown, from its start.

B1: 37C4F7 (antibody, V domains shown)
VH: EFQLQQSGPEVVKPGASVKISCKASGYSFTDYNMNWMKQSKGKSLEWIGVINPNYGTTTYNQNFKGKATLTVDQSSSTAYMQLNSLTSEDSAVYYCARDMYYVYAYYTMDYWGQGTSVTVSS
VL: DVVMTQTPLSLPVSLGDQASISCRSSQSLVHSNGHTYLHWYLQRPGQSPTLLIYKVSNRFSGVPDRFSGSGSGTDFTLKISRVEAEDLGVYFCSQGTHVPWTFGGGTKLEIK
notes: Mouse monoclonal antibody purified from hybridoma supernatant on protein A
B2: 38H2E3 (antibody, V domains shown)
VH: B1 VH with N52S, N54D, G66D, R98K, Q114H
VL: B1 VL with F67V, W101R
notes: as for B1
B3: 37F11F9 (antibody, V domains shown)
VH: EVQLQQSGPVLVKPGASVKMSCKASGYTFTDYYMNWVKQSHGKSLEWIGLINPYSGGSTFNQKFKAKATLTVDKSSSSAYMDLNSLTSEDSAVYYCARVGDGYYGVTHGMDYWGQGTSVTVSS
VL: DIVMTPSQKFMSTTVGDRVSITCKASQNVGTAVAWYQQKPGQSPTILIYSASNRYTGVPDRFTGSGSGTDFTLTISNMKSEDLADYFCQQYYIYPFTFAAGTKLELK
notes: as for B1
B4: 32C8F10 (antibody, V domains shown)
VH: EVQLQQSGAELVRPGASVKLSCTASGFNIKDEYIHWVKQRPEQGLEWIGWIDPANGHTEYASRFQAKATITADTSSNTAYLQLSSLTSEDTAVYYCTTGDYDGFAYWGQGTLVTVST
VL: QIVLTQSPAIMSASPGEKVTISCSARSSVSYMYWYQQKPGSSPKPWIYRTSNLASGVPARFSGSGSGTSYSLTISSMEAEDAATYYCQHYHTYPYTFGGGTKLEIK
notes: as for B1
B5: 31G10C5 (antibody, V domains shown)
VH: B4 VH with E32D, T58I, R63N, A105T
VL: B4 VL
notes: as for B1
B6: 31C11G2 (antibody, V domains shown)
VH: B4 VH with A105V
VL: B4 VL with S22F
notes: as for B1
B7: 42B7G2 (antibody, V domains shown)
VH: QVQLQQSGAELARPGASVKLSCKASGYTFTDYGISWVKQRTGQGLEWIGEIYLRNDNSYYNEKFKGKATLTADKSSNTAYMELRSLTSEDSAVYFCARWGDHGNNYEDAMDYWGQGTSVTVSS
VL: DIVLTQSPASLAMSLGKRATISCRASESVSIIGSNLIHWYQQKPGQPPKLLIYHASNLETGVPARFSGSGSRTDFTLTIDPVEEDDVAIYYCLQSRKVPYTFGGGTKLEIK
notes: as for B1

Tests used:
[1] = biological target: T1, human SEMA4D, full length, on CHO-K1 cells (CHO-K1 hSEMA4D) (human, UniProt Q92854 22-862); test: FACS, CHO-K1 hSEMA4D cells; Ab 66.7 nM
T1 construct: whole, on cells; also called human SEMA4D recombinant cells
T1 sequence (looked up): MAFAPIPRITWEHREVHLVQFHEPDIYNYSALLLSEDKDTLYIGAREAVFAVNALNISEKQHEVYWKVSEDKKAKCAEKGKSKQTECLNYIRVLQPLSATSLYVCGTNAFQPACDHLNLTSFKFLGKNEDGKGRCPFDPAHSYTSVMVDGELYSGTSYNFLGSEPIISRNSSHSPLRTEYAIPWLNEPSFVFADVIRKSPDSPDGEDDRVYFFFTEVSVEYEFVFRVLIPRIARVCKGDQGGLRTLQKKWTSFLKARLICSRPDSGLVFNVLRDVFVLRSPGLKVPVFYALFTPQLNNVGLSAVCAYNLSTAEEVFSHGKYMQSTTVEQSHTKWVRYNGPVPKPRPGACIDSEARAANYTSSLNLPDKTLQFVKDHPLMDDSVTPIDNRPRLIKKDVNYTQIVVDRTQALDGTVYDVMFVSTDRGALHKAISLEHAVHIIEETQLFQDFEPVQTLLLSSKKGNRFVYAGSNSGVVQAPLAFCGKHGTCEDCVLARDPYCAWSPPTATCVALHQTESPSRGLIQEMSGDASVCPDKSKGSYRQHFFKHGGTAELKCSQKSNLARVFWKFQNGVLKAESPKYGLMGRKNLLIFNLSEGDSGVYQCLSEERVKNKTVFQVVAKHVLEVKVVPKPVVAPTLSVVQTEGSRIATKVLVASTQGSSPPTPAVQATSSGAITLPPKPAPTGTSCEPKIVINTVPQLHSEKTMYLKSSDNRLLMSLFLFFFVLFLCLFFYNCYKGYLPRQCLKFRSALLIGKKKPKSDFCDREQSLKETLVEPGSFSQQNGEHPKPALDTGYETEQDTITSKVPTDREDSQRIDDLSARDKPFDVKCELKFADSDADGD
Description: The medium was aspirated, the cells were washed once with PBS buffer (purchased from Invitrogen), and then treated with cell dissociation fluid (TrypLE™ Express Enzyme, purchased from Life technology), and the cells were collected. After the cells counted, the cells were washed once with PBS phosphate buffer, and diluted to 3×10⁶ cells per milliliter, and added to the 96-well FACS reaction plate as 100 μL per well. 2% (w/w) fetal calf serum was added to PBS phosphate buffer as FACS buffer, with which the cells were washed once by centrifugation at 2000 rpm 4° C. 100 μL of diluted and purified leading antibodies was added to each well and the plate was incubated for 1 hour on ice. […] Cells were washed 2 times by centrifugation with FACS buffer. The cells were suspended with 200 μL of FACS buffer, and FACS (FACS Verse, purchased from BD) was used to detect and analyze the results.

[2] = biological target: T2, hSEMA4D ECD-His (His-tagged human SEMA4D protein extracellular domain, Met22-Arg734) (human, UniProt Q92854 22-734); test: ELISA, coated hSEMA4D ECD-His; Ab 0.00213 nM
T2 construct: Expressed in CHO-S cells, purified on Ni column; also called protein immunogen; immunogen A; not shown: His tag of the pCP vector
T2 sequence: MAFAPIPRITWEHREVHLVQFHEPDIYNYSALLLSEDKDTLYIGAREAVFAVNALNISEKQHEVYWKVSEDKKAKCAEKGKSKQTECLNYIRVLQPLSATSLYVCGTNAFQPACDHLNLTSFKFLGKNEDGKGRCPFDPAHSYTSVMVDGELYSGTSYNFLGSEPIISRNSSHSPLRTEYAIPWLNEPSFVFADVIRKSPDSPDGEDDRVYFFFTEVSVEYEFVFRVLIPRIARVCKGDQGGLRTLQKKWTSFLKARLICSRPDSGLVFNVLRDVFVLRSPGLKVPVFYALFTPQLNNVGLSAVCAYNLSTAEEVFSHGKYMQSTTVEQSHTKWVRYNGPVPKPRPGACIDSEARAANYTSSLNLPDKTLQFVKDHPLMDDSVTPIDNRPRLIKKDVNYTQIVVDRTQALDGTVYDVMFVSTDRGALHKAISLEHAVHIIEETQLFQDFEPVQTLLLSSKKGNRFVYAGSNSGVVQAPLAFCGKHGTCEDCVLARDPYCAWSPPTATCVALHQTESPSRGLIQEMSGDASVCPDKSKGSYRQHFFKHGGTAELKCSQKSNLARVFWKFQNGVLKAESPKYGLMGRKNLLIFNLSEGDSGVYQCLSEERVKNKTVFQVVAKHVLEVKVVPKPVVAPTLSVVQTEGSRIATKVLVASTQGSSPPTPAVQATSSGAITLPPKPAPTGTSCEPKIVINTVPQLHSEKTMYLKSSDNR
Description: First, hSEMA4D ECD-His was diluted with PBS to a final concentration of 1.0 μg/mL, and then was added to a 96-well ELISA plate, 100 μL per well, sealed with plastic film and incubated overnight at 4° C. On the next day, the plate was washed with a plate washing solution, that is, PBS buffer containing 0.05% (v/v) Tween20, for 4 times, and added with blocking solution, that is, PBS buffer containing 0.05% (v/v) Tween20 and 2% (w/w) BSA, blocked at 37° C. for 1 hour. The blocking solution was poured out and the plate was washed 4 times with the plate washing solution. 100 μL of the purified leading antibodies obtained in Examples 1 and 2 was added to each well. After incubation at 37° C. for 1 hour, the plate was washed 4 times with a plate washing solution. 100 μL of horseradish peroxidase (HRP) labeled secondary antibody (purchased from Sigma) was added at a dilution of 1:10000 to each well, and the plate was incubated at 37° C. for 1 hour, and washed 4 times with a plate washing solution. 100 μL TMB substrate was added to each well, and the plate was incubated at room temperature for 5 minutes, and added with 100 μL stop solution (1.0N HCl) to each well. A microplate reader (SpectraMax M5e, purchased from Molecular Device) was used to read the A450 nm value. […] Wherein, the data in the table was the OD450 nm value.

Row | Binder | MFI [1] | OD450 nm [2]
1 | B1 | 4740 | 0.0673
2 | B2 | 5470 | 0.0738
3 | B3 | 4110 | 0.0929
4 | B4 | 8760 | 0.0858
5 | B5 | 7410 | 0.109
6 | B6 | 6750 | 0.141
7 | B7 | 4120 | 0.11
